Test results taken from patent US20160177307.

Biological target: PDGF-BB (platelet-derived growth factor BB) (Homo sapiens) (UniProt P01127)
Assay: filter
[1] = all Z are BndU, rest DNA, SB18T, 37 C
[2] = Tyr, MBn, FBn, Ib, 2Nap, Pe, Th, NE dU, Heg, 2'-OMe
[3] = all P are NapdU, rest DNA, SB18T, 37 C

Chain of PDGF-BB (platelet-derived growth factor BB) (Homo sapiens) (P01127 82-190): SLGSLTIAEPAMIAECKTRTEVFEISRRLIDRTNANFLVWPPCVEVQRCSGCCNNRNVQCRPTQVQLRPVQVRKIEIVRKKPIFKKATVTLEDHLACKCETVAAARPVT

TTACGACTACGTTACACGCTTTATAGCG [4149-8_83]
Kd (Bn-dU, C3 at 20): > 10 nM

TTACGTTACACGCGTTTATAGCG [4149-8_129]
Kd (Bn-dU, Nap-dU, Heg, 2'-OMe): > 10 nM

TTACGTTACCGCGTTTATAGCG [4149-8_420]
Kd (as 4149-8_379, 2'-OMe 15, iBudU 16): 1.4 nM

GACAGCATGTATGCACATCTAG [5169-4_28]
Kd (NapdU at P): 0.048 nM

CGACAGCATGTATGCACATT [5169-4_78]
Kd (NapdU at P, C3 spacer at 20): 0.28 nM

CGACAGCATGTATGCACATCTAGAGGCTA [5169-4_18]
Kd (NapdU at P): 0.026 nM

ATCTCTTACGACTACGTTACACGCGTTTATAGCGTCAACCCGAGTG [4149-8_5]
Kd [1]: 0.02 nM

CCTCGACAGCATGTATGCACATCTAGAGGCTACCCAGTGAATGAGGA [5169-4_4]
Kd (NapdU at P, SB18T, 37 C): 0.027 nM

CGACAGCATGTATGCACATCT [5169-4_37]
Kd (NapdU at P, 2'-OMe 17): 0.041 nM

TTACGTTACCGCGTTTATAGCG [4149-8_424]
Kd (as 4149-8_379, 2'-OMe 13,14): 6.6 nM

CGACAGCATGTATGACATCT [5169-4_73]
Kd (C3 spacer at 15, NapdU at 9,11,13,19,21, C3 spacer walk): 0.015 nM

TTACGTTACACGCGTTTATAGCG [4149-8_250]
Kd [2]: > 10 nM

TTACGACTACGTTACACGCGTTTATAGCG [4149-8_107]
Kd (Bn-dU, 2'-OMe U13): > 10 nM

TTACGTTACACGCGTTTATAGCG [4149-8_252]
Kd (Trp, Ib, NE, Th, Pe, MBn dU, Heg, 2'-OMe): > 10 nM

TTACGTTACCGCGTTTATAGCG [4149-8_437]
Kd (as 4149-8_379, BndU 2, NapdU 16, PS 9,15): 0.0074 nM

TTACGTTACACGCGTTTATAGCG [4149-8_306]
Kd (Bn-dU, 2'-OMe Bn-U2, Heg5, 2'-OMe A3, A11, A21, G24): > 10 nM

CGACAGCATGTATGCACATCTAGAGGCT [5169-4_19]
Kd [3]: 0.012 nM

CGACAGCATGTATGCAATCT [5169-4_75]
Kd (NapdU at P, C3 spacer at 17): 0.14 nM

CGACAGCATGTATGCACATCT [5169-4_54]
Kd (NapdU at 11,13,19,21, dT at 9, dT substitution): 44 nM

TTACGCCGTTACACGCGTTTATAGCG [4149-8_102]
Kd (Bn-dU, C3 linkers, 2'-OMe): > 10 nM

CTTACGACTACGTTACACGCGTTTATAGCGTCAACCCGAGTGAACA [4149-8_12]
Kd [1]: 0.04 nM

TTACGTTACACGCGTTTATAGCG [4149-8_180]
Kd (Bn-dU, Trp-dU17, Heg5, 2'-OMe A3, A11, A21, G24): > 10 nM

CGACAGCATGTATGCACATCT [5169-4_117]
Kd (NapdU at P, 2'-OMe 4,12,17): 0.71 nM

CGACAGCATGTATGCACATCTAGA [5169-4_23]
Kd (NapdU at P): 0.02 nM

CGACACATGTATGCACATCT [5169-4_64]
Kd (C3 spacer at 6, NapdU at 9,11,13,19,21, C3 spacer walk): 0.054 nM

CGACAGCATGTATCACATCT [5169-4_72]
Kd (C3 spacer at 14, NapdU at 9,11,13,19,21, C3 spacer walk): 230 nM

TTACGACTACGTTACACGCGTTTATAGCG [4149-8_104]
Kd (Bn-dU, 2'-OMe U2): > 10 nM

CGACAGCATGTATGCACATCT [5169-4_49]
Kd (NapdU at P, 2'-OMe 9): 0.53 nM

CGACAGCATGTATGCACATCT [5169-4_175]
Kd (as 5169-4_146, PS 15, 3' inverted dT): 0.0069 nM

CGACAGCATGTATGCACATCT [5169-4_116]
Kd (NapdU at P, 2'-OMe 4,17,21): 0.093 nM

CGACAGCATGTATGCACATCT [5169-4_153]
Kd (as 5169-4_146, PS 8, 3' inverted dT): 0.013 nM

TTACGACTACGTTACACGCGTTTATAG [4149-8_40]
Kd (BndU at 1,2,8,12,13,21,22,23,25, rest DNA, SB18T, 37 C): 1.5 nM

CGACAGCATGTATGCACATCT [5169-4_44]
Kd (2'-OMe A5, NapdU at 9,11,13,19,21, 2'-OMe substitution): 0.53 nM

CGACAGCATGTATGCACATCT [5169-4_48]
Kd (NapdU at P, 2'-OMe 18): 0.014 nM

CGACAGCATGTATGCACATCT [5169-4_33]
Kd (NapdU at P, 2'-OMe 1): 0.027 nM

CGACAGCATGTATGCACATCT [5169-4_154]
Kd (as 5169-4_146 plus PS 3' of P9, 3'-idT, 1.8-fold weaker than parent): 0.026 nM

TTACGACTACGTTACACGCGTTTATAGCG [4149-8_111]
Kd (Bn-dU, Nap-dU1, 2'-OMe U25): > 10 nM

CTTACGACTACGTTACACGCGTTTATAGCGT [4149-8_29]
Kd [1]: 0.07 nM

TTACGTTACACGCGTTTATAGCG [4149-8_276]
Kd (Bn-dU, FBn-dU7, Ib-dU8, Pe-dU17, Th-dU18, Heg5, 2'-OMe A3, A11, A21, G24): > 10 nM

TTACGTTACCGCGTTTATAGCG [4149-8_418]
Kd (as 4149-8_379, 2'-OMe 15): 0.21 nM

CGAAGCATGTATGCACATCT [5169-4_62]
Kd (C3 spacer at 4, NapdU at 9,11,13,19,21, C3 spacer walk): 42 nM

TTACGTTACACGCGTTTATAGCGNT [4149-8_339]
Kd (4149-8_260 3'-3' dimer, C3, doubler): 0.0062 nM

CGACAGCATGTATGCACATCTAGAGGCTACCCAGTGAA [5169-4_12]
Kd (NapdU at P): 0.064 nM

CGACAGCATGTATGCACATCT [5169-4_41]
Kd (NapdU at P, 2'-OMe 10): 0.097 nM

CGACAGCATGTATGCACATCT [5169-4_155]
Kd (as 5169-4_146, PS 10, 3' inverted dT): 0.0069 nM

CGACAGCATGTATGCACATCTAGAGGCTACCCAGT [5169-4_17]
Kd (NapdU at P): 0.02 nM

TTACGTTACCGCGTTTATAGCG [4149-8_423]
Kd (as 4149-8_379, 2'-OMe 13, NapdU 16): 0.033 nM

CGACAGCATGTATGCACATCT [5169-4_38]
Kd (NapdU at P, 2'-OMe 20): 0.022 nM

ATCTCTTACGACTACGTTACACGCGTTTATAGCGTCAACCCGAGTGAACA [4149-8_2]
Kd (all Z are BndU (5-(N-benzylcarboxamide)-2'-deoxyuridine), rest DNA, SB18T, 37 C, Zorbax partition): 0.05 nM

CGACAGCATGTATGCACATCT [5169-4_40]
Kd (NapdU at P, 2'-OMe 6): 0.024 nM

TTACGACTACGTTACACGGTTTATAGCG [4149-8_82]
Kd (Bn-dU, C3 at 19): > 10 nM

CGACAGCATGTATGCACATCT [5169-4_111]
Kd (NapdU at P, 2'-OMe 7,14,16): 0.0048 nM

TTACGTTACCGCGTTTATAGCG [4149-8_434]
Kd (as 4149-8_379, PS 9,15): 0.032 nM

CGACAGCATGTATGCACATCTAGAGG [5169-4_21]
Kd (NapdU at P): 0.021 nM

TTACGTTACACGCGTTTATAGCG [4149-8_179]
Kd (Bn-dU, Trp-dU16, Heg5, 2'-OMe A3, A11, A21, G24): > 10 nM

TTACGTTACGCGTTTATAGCG [4149-8_304]
Kd (Bn-dU, C3 linkers, 2'-OMe): > 10 nM

TTACGTTACACGCGTTTATAGCG [4149-8_186]
Kd (Bn-dU, 2Nap-dU8, Heg5, 2'-OMe A3, A11, A21, G24): > 10 nM

TTACGACTACGTTCACGCGTTTATAGCG [4149-8_77]
Kd (Bn-dU, C3 at 14): > 10 nM

CGACAGCATGTATGCACATCTAGAG [5169-4_22]
Kd (NapdU at P): 0.015 nM

CGACAGCATGTATGCACATCT [5169-4_42]
Kd (2'-OMe G14, NapdU at 9,11,13,19,21, 2'-OMe substitution): 0.0069 nM

CTCTTACGACTACGTTACACGCGTTTATAGCGTCAACCCGAGTGAACA [4149-8_11]
Kd [1]: 0.03 nM

CTTACGACTACGTTACACGCGTTTAT [4149-8_34]
Kd (Bn-dU): > 10 nM

TTACGACTACGTTACACCGTTTATAGCG [4149-8_81]
Kd (Bn-dU, C3 at 18): > 10 nM

TTACGACTACGTACACGCGTTTATAGCG [4149-8_76]
Kd (Bn-dU, C3 at 13): > 10 nM

TTACGTTACACGCGTTTATAGCG [4149-8_364]
Kd (Bn-dU, dT8, Heg5, 2'-OMe A3, A11, A21, G24): > 10 nM

CGACGCATGTATGCACATCT [5169-4_63]
Kd (NapdU at P, C3 spacer at 5): 29 nM

CGACAGCATGTATGCACATCT [5169-4_108]
Kd (NapdU at P, 2'-OMe 1,6,14): 0.012 nM

ACACGCGTTTATAGCGTCAACCCGAGTGAACA [4149-8_19]
Kd [1]: 74 nM

TTACGTTACACGCGTTTATAGCG [4149-8_244]
Kd (Bn-dU, Heg5, 2'-OMe A3, A9, A11, A21, G24): > 10 nM

ATCTCTTACGACTACGTTACACGCGTTTATAGCGTC [4149-8_10]
Kd [1]: 0.05 nM

TTACGTTACACGCGTTTATAGCG [4149-8_251]
Kd [2]: > 10 nM

CGACAGCATGTATGCACATCT [5169-4_36]
Kd (NapdU at P, 2'-OMe 15): 0.028 nM

TACGACTACGTTACACGCGTTTATAGCG [4149-8_65]
Kd (Bn-dU, C3 at 2): > 10 nM

TTACGTTACACGCGTTTATAGCG [4149-8_258]
Kd (Bn-dU, 2'-OMe U7, Ib-dU8, Heg5, 2'-OMe A3, A11, A21, G24): > 10 nM

CGACAGCATGTATGCACATCT [5169-4_81]
Kd (NapdU at P, 2'-OMe 7,14,16,18): 0.0049 nM

GACAGCATGTATGCACATCT [5169-4_30]
Kd [3]: 0.062 nM

TTACGTTACACGCGTTTATAGCG [4149-8_134]
Kd (Bn-dU): > 10 nM

TTACGTTACACGCGTTTATAGCG [4149-8_196]
Kd (Bn-dU, 2NE-dU17, Heg5, 2'-OMe A3, A11, A21, G24): > 10 nM

TTACGACTACGTTACACGCGTTTATAGCG [4149-8_108]
Kd (Bn-dU, 2'-OMe U21): > 10 nM

CGACAGCATGTATGCACATCTAGAGGC [5169-4_20]
Kd (NapdU at P): 0.014 nM

TTACGTTACCGCGTTTATAGCG [4149-8_422]
Kd (as 4149-8_379, 2'-OMe 13,15): 0.27 nM

CGACAGCATGTATGCACATCT [5169-4_114]
Kd (NapdU at P, 2'-OMe 7,17,21): 0.038 nM

CGACAGCATGTATGCACATCT [5169-4_105]
Kd (NapdU at P, 2'-OMe 6,18,20): 0.0061 nM

CTTACGACTACGTTACACGCGTTTA [4149-8_35]
Kd (Bn-dU): > 10 nM

CTCTTACGACTACGTTACACGCGTTTATAGCGTC [4149-8_27]
Kd [1]: 0.09 nM

CGACAGCATGTATGCACATCT [5169-4_113]
Kd (NapdU at P, 2'-OMe 7,16,21): 0.012 nM

TTACGTTACACGCGTTTATAGCG [4149-8_277]
Kd (Bn-dU, Tyr-dU1, Ib-dU8, Pe-dU17, Th-dU18, Heg5, 2'-OMe A3, A11, A21, G24): > 10 nM

CGACAGCATGTATGCACATCT [5169-4_128]
Kd (NapdU at P, 2'-OMe 13,14,15): 0.099 nM

TTACGACTACGTTACACGCGTTATAGCG [4149-8_84]
Kd (Bn-dU, C3 at 21): > 10 nM
